Laboratory results published in patent US6403765B1, “Truncated Apaf-1 and methods of use thereof” (Thomas Jefferson University, priority 1998, dated 2002).
Changes are numbered by the printed parent chain.

What was measured:
Test in all cases: In vitro caspase 9 activation assay: recombinant Apaf-1 variants incubated with in vitro translated procaspase-9
Format in all cases: biochemical
[1] = biological target: T1, procaspase-9 (Homo sapiens, UniProt P55211)
T1 construct: schematic representation of full length procaspase-9; made in house; host or cells: coupled in vitro transcription/translation in rabbit reticulocyte lysate (TNT Kit, Promega)
T1 sequence (P55211 134-416): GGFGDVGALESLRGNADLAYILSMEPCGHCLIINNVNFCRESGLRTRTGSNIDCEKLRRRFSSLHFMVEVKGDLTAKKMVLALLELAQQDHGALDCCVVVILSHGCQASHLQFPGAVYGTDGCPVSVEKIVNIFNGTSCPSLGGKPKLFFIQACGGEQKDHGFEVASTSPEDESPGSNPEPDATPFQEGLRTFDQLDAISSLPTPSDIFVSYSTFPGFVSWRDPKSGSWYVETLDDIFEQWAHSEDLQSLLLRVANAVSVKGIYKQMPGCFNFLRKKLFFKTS

[2] = biological target: T2, procaspase-9 (Homo sapiens, UniProt P55211, C287A)
T2 construct: schematic representation of full length procaspase-9; made in house; host or cells: coupled in vitro transcription/translation in rabbit reticulocyte lysate (TNT Kit, Promega)
T2 sequence (P55211 1-416 C287A): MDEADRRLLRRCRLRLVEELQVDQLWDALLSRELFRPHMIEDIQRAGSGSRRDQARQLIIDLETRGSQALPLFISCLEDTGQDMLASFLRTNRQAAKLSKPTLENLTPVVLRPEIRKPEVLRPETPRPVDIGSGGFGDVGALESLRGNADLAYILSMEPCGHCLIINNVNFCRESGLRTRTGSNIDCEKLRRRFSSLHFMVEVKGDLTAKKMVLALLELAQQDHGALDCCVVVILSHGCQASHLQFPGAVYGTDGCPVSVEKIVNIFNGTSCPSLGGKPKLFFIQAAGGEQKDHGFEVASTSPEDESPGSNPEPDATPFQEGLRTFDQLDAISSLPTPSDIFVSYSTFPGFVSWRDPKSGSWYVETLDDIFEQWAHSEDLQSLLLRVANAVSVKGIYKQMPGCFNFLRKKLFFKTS

[3] = biological target: T3, procaspase-9 (Homo sapiens, UniProt P55211, D315A); details: 35S-labeled substrate, FIG. 3
T3 construct: schematic representation of full length procaspase-9; made in house; host or cells: coupled in vitro transcription/translation in rabbit reticulocyte lysate (TNT Kit, Promega)
T3 sequence (P55211 1-416 D315A): T2 sequence (P55211 1-416 C287A) with A287C, D315A

[4] = system: procaspase-9
[5] = in the presence of non-radiolabeled WT procaspase-9, FIG. 14

B1: Apaf-530: truncated Apaf-1 (residues 1-530) lacking its WD-40 repeats, recombinant (protein, UniProt O14727 1-530, looked up, fragment)
chain: MDAKARNCLLQHREALEKDIKTSYIMDHMISDGFLTISEEEKVRNEPTQQQRAAMLIKMILKKDNDSYVSFYNALLHEGYKDLAALLHDGIPVVSSSSGKDSVSGITSYVRTVLCEGGVPQRPVVFVTRKKLVNAIQQKLSKLKGEPGWVTIHGMAGCGKSVLAAEAVRDHSLLEGCFPGGVHWVSVGKQDKSGLLMKLQNLCTRLDQDESFSQRLPLNIEEAKDRLRILMLRKHPRSLLILDDVWDSWVLKAFDSQCQILLTTRDKSVTDSVMGPKYVVPVESSLGKEKGLEILSLFVNMKKADLPEQAHSIIKECKGSPLVVSLIGALLRDFPNRWEYYLKQLQNKQFKRIRKSSSYDYEALDEAMSISVEMLREDIKDYYTDLSILQKDVKVPTKVLCILWDMETEEVEDILQEFVNKSLLFCDRNGKSFRYYLHDLQVDFLTEKNCSQLQDLHKKIITQFQRYHQPHTLSPDQEDCMYWYNFLAYHMASAKMHKELCALMFSLDWIKAKTELVGPAHLIHEFVEYR
[1]; 35S-labeled substrate, FIG. 3
  processing of prodomainless procaspase-9 (residues 134-416): prevented processing
[1]; [5]
  processing of 35S-labeled prodomainless procaspase-9: not
[2]; 35S-labeled substrate, FIG. 3
  processing of procaspase-9 active site C287A mutant: unable to promote processing
[2]; [5]
  processing of 35S-labeled C287A mutant procaspase-9: able to induce processing
[3]
  processing of D315A mutant procaspase-9: unable to process
[4]; 35S-labeled substrate, FIG. 3
  processing of WT or D330A mutant procaspase-9: produced the p35 fragment
[4]; mutants incubated separately or together, 1 hour at 30° C., FIG. 13
  autoprocessing of C287A and R355E mutant procaspase-9: none of the mutants were able to autoprocess
